In patent US9969812B2, “Anti human Notch4 antibody” (Eisai R&D Management Co., Ltd., priority 2015, dated 2018):

Biological target: T1, Human Notch4-NRR Fusion Protein (Homo sapiens, UniProt Q99466)
T1 construct: Human Notch4-NRR domain Fc fusion proteins were expressed with a CHO cell line; Fc; made in house; host or cells: CHO cell line (antigen captured from culture supernatant)
T1 sequence (Q99466 1046-1445 limits assumed): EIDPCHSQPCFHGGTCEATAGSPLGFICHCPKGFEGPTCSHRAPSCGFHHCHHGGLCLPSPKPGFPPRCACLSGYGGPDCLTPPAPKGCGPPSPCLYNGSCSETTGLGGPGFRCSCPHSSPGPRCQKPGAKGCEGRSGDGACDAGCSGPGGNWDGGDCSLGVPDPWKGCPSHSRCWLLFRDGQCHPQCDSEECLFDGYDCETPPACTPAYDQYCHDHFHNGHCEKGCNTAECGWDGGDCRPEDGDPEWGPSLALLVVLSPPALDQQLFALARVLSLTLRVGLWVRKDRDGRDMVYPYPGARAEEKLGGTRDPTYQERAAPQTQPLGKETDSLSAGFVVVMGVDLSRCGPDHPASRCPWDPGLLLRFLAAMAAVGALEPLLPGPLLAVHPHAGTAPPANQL
Assay: Kinetic analysis, captured Human Notch4-NRR Fc fusion protein, humanized antibody injected
Type: binding
Settings: Table 30, Human Notch4-NRR Fc fusion
Description: Kinetic analysis of further anti-Notch4 inhibitory humanized antibodies was carried out as follows. Human Notch4-NRR domain Fc fusion proteins were expressed with a CHO cell line. The antigen in the culture supernatant was captured by the anti-human Notch4 antibody fixed on a CM5 sensor chip that recognizes different epitopes of human Notch4. The humanized anti-human Notch4 antibody was then injected onto the sensor chip at various concentrations. The interaction and disassociation constants thereof were calculated according to manufacturer's instructions.
In the table below, e.g. the description “HK2L3 (Lys-)” means that the heavy chain variable region of the humanized anti-human Notch4 antibody employed in the experiment is the heavy chain variable region of the humanized anti-human Notch4 antibody heavy chain HK2 in Example 1, light chain variable region is the light chain variable region of the humanized anti-human Notch4 antibody light chain L3 in Example 1, and lysine (Lys) located at the C-terminal of the heavy chain of a common human antibody is deleted in this antibody. Those without the description “(Lys-)” mean that Lys located at the C-terminal of the heavy chain of the human antibody is not deleted.

B1: Antibody D: humanized anti-human Notch4 antibody, heavy chain variable region HK3, light chain variable region L5, C-terminal Lys deleted (antibody)
heavy: EVQLVESGGGLVQPGGSLRLSCAASGFTFSSYGMSWVRQAPGKGLELVATINSNGGRTYYPDSVKGRFTISRDNSKNTLYLQMGSLKAEDMAVYYCARDQGFAYWGQGTLVTVSSASTKGPSVFPLAPCSRSTSESTAALGCLVKDYFPEPVTVSWNSGALTSGVHTFPAVLQSSGLYSLSSVVTVPSSNFGTQTYTCNVDHKPSNTKVDKTVERKCCVECPPCPAPPAAAPSVFLFPPKPKDTLMISRTPEVTCVVVDVSHEDPEVQFNWYVDGVEVHNAKTKPREEQFNSTFRVVSVLTVVHQDWLNGKEYKCKVSNKGLPAPIEKTISKTKGQPREPQVYTLPPSREEMTKNQVSLTCLVKGFYPSDIAVEWESNGQPENNYKTTPPMLDSDGSFFLYSKLTVDKSRWQQGNVFSCSVMHEALHNHYTQKSLSLSPG
light: DIQMTQSPSSLSASVGDRVTITCKASQDVGTAVAWYQQKPGKSPKLLIYWASTRHTGVPSRFSGSGSGTDFTLTISSLQPEDVATYFCQQYSSYPWTFGQGTKVEIKRTVAAPSVFIFPPSDEQLKSGTASVVCLLNNFYPREAKVQWKVDNALQSGNSQESVTEQDSKDSTYSLSSTLTLSKADYEKHKVYACEVTHQGLSSPVTKSFNRGEC
- Rmax1 (RU): 37 RU
- ka: 1.82e+06 M⁻¹ s⁻¹
- kd: 0.000863 s⁻¹
